Patent US10253078 (ZEALAND PHARMA A S, dated 2019)
Starred links: 1 amine or outer side, 2 acyl side, 3 side chain; linkers in the order of their positions; H or OH if unused. Non-standard residues stand in square brackets, D forms with d. Groups on a side chain read outwards from the residue. *: point of attachment. C20 diacid = O=C(O)CCCCCCCCCCCCCCCCCCC(=O)*; γGlu = O=C(O)[C@H](CCC(=O)[*:2])N[*:1]; Aib = CC(C)(N)C(=O)O

T1: human GIP receptor (human, UniProt P48546 22-466)
T1 sequence (looked up): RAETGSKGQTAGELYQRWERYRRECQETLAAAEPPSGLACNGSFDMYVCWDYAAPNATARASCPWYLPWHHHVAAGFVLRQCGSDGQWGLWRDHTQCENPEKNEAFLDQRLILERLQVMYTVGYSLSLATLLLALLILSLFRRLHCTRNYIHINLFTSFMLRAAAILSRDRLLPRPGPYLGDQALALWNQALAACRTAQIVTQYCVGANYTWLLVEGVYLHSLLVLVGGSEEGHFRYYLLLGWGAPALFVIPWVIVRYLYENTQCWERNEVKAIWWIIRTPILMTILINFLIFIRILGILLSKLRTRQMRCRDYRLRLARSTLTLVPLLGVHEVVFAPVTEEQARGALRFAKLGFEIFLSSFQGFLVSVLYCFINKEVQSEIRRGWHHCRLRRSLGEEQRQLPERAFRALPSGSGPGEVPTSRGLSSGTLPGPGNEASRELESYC

B1: Compound 33 (peptide)
peptide: YAEGTFISDYSIELDKKAAQDFIEWLLAGPSSGAPPPS
modifications: Aib at 2; Lys 17 side chain acylated: K((19-Carboxy-nonadecanoyl)-[(Piperazine-1-yl)-acetyl]-Peg3-Peg3); C-terminal amide (-NH2)
B2: Compound 39 (peptide)
peptide: H-Y[Aib]EGTFISDYSIELDKK([Peg3-Peg3-γGlu-C20 diacid])AAQDFINWLLAQGPSSGAPPPS-NH2
B3: Compound 40 (peptide)
peptide: H-Y[Aib]EGTFISDYSIELDKK([Peg3-Peg3-γGlu-C20 diacid])AAQAFIEWLLAQGPSSGAPPPS-NH2
B4: Compound 34 (peptide)
peptide: H-Y[Aib]EGTFISDYSIELDK([Peg3-Peg3-γGlu-C20 diacid])IAQRAFIEWLLAQGPSSGAPPPS-NH2
B5: Compound 25 (peptide)
peptide: H-Y[Aib]EGTFISDYSIELDKIAAQDFIEWLLAGPSSGAPPPSK([Peg3-Peg3-γGlu-C20 diacid])-NH2
B6: Compound 19 (peptide)
peptide: YAEGTFISDYSIELDKKAQRAFIEWLLAQGPSSGAPPPS
modifications: Aib at 2; Lys 17 side chain acylated: K((19-Carboxy-nonadecanoyl)-[(Piperazine-1-yl)-acetyl]-Peg3-Peg3); C-terminal amide (-NH2)
B7: Compound 20 (peptide)
peptide: YAEGTFISDYSIELDKKAQRAFVEWLLAQGPSSGAPPPS
modifications: Aib at 2; Lys 17 side chain acylated: K((19-Carboxy-nonadecanoyl)-[(Piperazine-1-yl)-acetyl]-Peg3-Peg3); C-terminal amide (-NH2)
B8: Compound 41 (peptide)
peptide: YAEGTFISDYSIELDKKAAQAFIEWLLAQGPSSGAPPPS
modifications: Aib at 2; Lys 17 side chain acylated: K((19-Carboxy-nonadecanoyl)-[(Piperazine-1-yl)-acetyl]-Peg3-Peg3); C-terminal amide (-NH2)
B9: Compound 21 (peptide)
peptide: YAEGTFISDYSIELDKKAQKEFVEWLLAAGPSSGAPPPS
modifications: Aib at 2; Lys 17 side chain acylated: K((19-Carboxy-nonadecanoyl)-[(Piperazine-1-yl)-acetyl]-Peg3-Peg3); C-terminal amide (-NH2)
B10: Compound 38 (peptide)
peptide: H-Y[Aib]EGTFISDYSIELDKK([Peg3-Peg3-γGlu-C20 diacid])AAQDFIEWLLAQGPSSGAPPPS-NH2
B11: Compound 29 (peptide)
peptide: H-Y[Aib]EGTFISDYSIELDKK([Peg3-Peg3-γGlu-C20 diacid])AAQAFVNWLLAGPSSGAPPPS-NH2
B12: Compound 23 (peptide)
peptide: H-Y[Aib]EGTFISDYSIELDKIAQRAFIEWLLAGPSSGAPPPSK([Peg3-Peg3-γGlu-C20 diacid])-NH2
B13: Compound 36 (peptide)
peptide: H-Y[dA]EGTFISDYSIELDKK([Peg3-Peg3-γGlu-C20 diacid])AQRAFIEWLLAQGPSSGAPPPS-NH2
B14: Compound 28 (peptide)
peptide: H-Y[Aib]EGTFISDYSIELDKIAQRAFIEWLLAQGPSSGAPPPSK([Peg3-Peg3-γGlu-C20 diacid])-NH2
B15: Compound 35 (peptide)
peptide: H-Y[Aib]EGTFISDYSK([Peg3-Peg3-γGlu-C20 diacid])ELDKIAQRAFIEWLLAQGPSSGAPPPS-NH2
B16: Compound 27 (peptide)
peptide: H-Y[Aib]EGTFISDYSIELDKIAAQDFVEWLLAGPSSGAPPPSK([Peg3-Peg3-γGlu-C20 diacid])-NH2
B17: Compound 10 (peptide)
peptide: H-Y[Aib]EGTFISDYSIELDKK([Peg3-Peg3-γGlu-C20 diacid])AAQDFVNWLLAQGPSSGAPPPS-NH2
B18: Compound 32 (peptide)
peptide: H-Y[Aib]EGTFISDYSIELDKK([Peg3-Peg3-γGlu-C20 diacid])AAQDFIEWLLAGPSSGAPPPS-NH2
B19: Compound 11 (peptide)
peptide: H-Y[Aib]EGTFISDYSIELEKK([Peg3-Peg3-γGlu-C20 diacid])AAKEFVNWLLAQGPSSGAPPPS-NH2
B20: Compound 22 (peptide)
peptide: H-Y[Aib]EGTFISDYSIELDKK([Peg3-Peg3-γGlu-C20 diacid])AQKEFVEWLLAAGPSSGAPPPS-NH2
B21: Compound 26 (peptide)
peptide: YAEGTFISDYSIELDKIAAQDFIEWLLAGPSSGAPPPSK
modifications: Aib at 2; Lys 39 side chain acylated: K((19-Carboxy-nonadecanoyl)-[(Piperazine-1-yl)-acetyl]-Peg3-Peg3); C-terminal amide (-NH2)
B22: Compound 37 (peptide)
peptide: YXEGTFISDYSIELDKIAAQDFIEWLLAGPSSGAPPPSK
modifications: D-Ala at 2; Lys 39 side chain acylated: K((19-Carboxy-nonadecanoyl)-[(Piperazine-1-yl)-acetyl]-Peg3-Peg3); C-terminal amide (-NH2)
B23: Compound 24 (peptide)
peptide: H-Y[Aib]EGTFISDYSIELDKIAQKEFIEWLLAGPSSGAPPPSK([Peg3-Peg3-γGlu-C20 diacid])-NH2
B24: Compound 30 (peptide)
peptide: H-Y[Aib]EGTFISDYSIELDKK([Peg3-Peg3-γGlu-C20 diacid])AAQDFVNWLLAAGPSSGAPPPS-NH2
B25: Compound 31 (peptide)
peptide: H-Y[Aib]EGTFISDYSIELDKK([Peg3-Peg3-γGlu-C20 diacid])AAQDFINWLLAGPSSGAPPPS-NH2

Assays:
Experiment in all cases: cell-based or functional assay
human GIP receptor [1] = biological target: T1, human GIP receptor
human GIP receptor [2] = biological target: T1, human GIP receptor; remark: listed apart in the source
human GLP-1 receptor = human GLP-1 receptor (human, UniProt P43220 24-463)

Binder | EC50, hGIP-R level of cAMP (HEK293 cells expressing human GIP R) (human GIP receptor [1]) | EC50 hGIP R (cAMP, HEK293 cells expressing the GIP R) (human GIP receptor [2]) | EC50 hGLP1 R (cAMP, HEK293 cells expressing the GLP-1R) (human GLP-1 receptor)
B1 | 0.014 nM | 0.02 nM | > 10 nM
B2 | 0.007 nM | 0.001 nM | > 100 nM
B3 | 0.01 nM | 0.007 nM | > 10 nM
B4 | 0.011 nM | 0.017 nM | > 10 nM
B5 | 0.032 nM | 0.008 nM | > 100 nM
B6 | 0.006 nM | 0.005 nM | > 3 nM
B7 | 0.007 nM | 0.006 nM | > 3 nM
B8 | 0.014 nM | 0.01 nM | > 10 nM
B9 | 0.007 nM | 0.006 nM | > 3 nM
B10 | 0.001 nM | 0.017 nM | > 100 nM
B11 | 0.014 nM | 0.007 nM | > 100 nM
B12 | 0.01 nM | 0.005 nM | > 10 nM
B13 | 0.006 nM | 0.006 nM | > 10 nM
B14 | 0.007 nM | 0.013 nM | > 3 nM
B15 | 0.008 nM | 0.011 nM | > 3 nM
B16 | 0.013 nM | 0.017 nM | > 10 nM
B17 | 0.007 nM | 0.008 nM | > 10 nM
B18 | 0.02 nM | 0.012 nM | > 100 nM
B19 | 0.009 nM | 0.008 nM | > 3 nM
B20 | 0.005 nM | 0.007 nM | > 10 nM
B21 | 0.017 nM | 0.032 nM | > 10 nM
B22 | 0.016 nM | 0.006 nM | > 10 nM
B23 | 0.008 nM | 0.01 nM | > 10 nM
B24 | 0.009 nM | 0.014 nM | > 10 nM
B25 | 0.012 nM | 0.009 nM | > 100 nM
